In publication PMC4920709 one finds percent of plasma PCSK9 associated with apoB data, which are given here for one substance.

The target in this test is Proprotein Convertase Subtilisin/Kexin type 9 (PCSK9), human plasma (human (endogenous in plasma)) (UniProt Q8NBP7).
UniProt Q8NBP7, sequence (Q8NBP7 153-692): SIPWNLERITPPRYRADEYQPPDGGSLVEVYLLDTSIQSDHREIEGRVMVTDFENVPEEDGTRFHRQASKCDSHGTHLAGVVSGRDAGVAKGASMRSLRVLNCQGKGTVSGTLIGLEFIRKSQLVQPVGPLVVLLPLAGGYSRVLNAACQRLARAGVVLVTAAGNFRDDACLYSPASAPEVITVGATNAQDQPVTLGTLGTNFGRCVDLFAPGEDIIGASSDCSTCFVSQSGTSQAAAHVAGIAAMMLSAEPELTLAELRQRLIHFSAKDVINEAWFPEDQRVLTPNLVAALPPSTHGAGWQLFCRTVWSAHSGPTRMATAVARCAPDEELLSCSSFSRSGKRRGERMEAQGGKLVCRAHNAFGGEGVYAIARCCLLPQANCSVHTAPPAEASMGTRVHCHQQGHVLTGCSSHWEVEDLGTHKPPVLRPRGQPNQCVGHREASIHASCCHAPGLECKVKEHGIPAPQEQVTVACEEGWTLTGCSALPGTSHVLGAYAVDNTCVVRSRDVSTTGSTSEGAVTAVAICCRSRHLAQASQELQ

For “apolipoprotein B-100 (apoB-100) of human plasma LDL and Lp(a) (from UniProt P04114 28-4563) (natural protein)”, the percent of plasma PCSK9 associated with apoB was found to be 37%.
